From patent US20200010542A1 (MorphoSys, published 2020) come the findings set out here.

Assay [1] concerns the target T1, human IL-17C (human, UniProt Q9P0M4 19-197).
T1 sequence: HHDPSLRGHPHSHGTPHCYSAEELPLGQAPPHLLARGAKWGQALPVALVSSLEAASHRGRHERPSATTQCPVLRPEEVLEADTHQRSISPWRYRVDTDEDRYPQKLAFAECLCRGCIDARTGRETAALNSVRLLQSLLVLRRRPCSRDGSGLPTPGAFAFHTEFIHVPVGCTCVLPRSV
Kind of assay: cell-based or functional assay.

The target of assay [2] is T2, mouse IL-17C (mouse, UniProt Q8K4C5 17-194).
T2 construct: R&D Systems #2306-ml-025 in the reporter assay; biotinylated in the screens; also called mIL-17C; mGT454
T2 sequence: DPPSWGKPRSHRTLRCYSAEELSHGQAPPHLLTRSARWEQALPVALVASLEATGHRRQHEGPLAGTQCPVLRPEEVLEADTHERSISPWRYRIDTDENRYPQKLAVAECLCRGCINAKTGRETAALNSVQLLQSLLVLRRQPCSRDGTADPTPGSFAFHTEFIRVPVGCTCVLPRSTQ
Kind of assay: SET (ECL based), IgG, bivalent affinity, mGT454. As for the experimental part: (§1) Additionally monovalent Fab and bivalent IgG affinity was determined by SET. Therefore purified Fabs and IgGs were titrated on human or mouse IL-17C for EC₅₀ determination. The results confirmed the proposed avidity effect exerted by IgG antibodies forming mainly class III complexes.
(§2) Solution equilibrium titration (SET) was basically performed as described in the literature (Friquet et al., (1985) J. Immunol. Meth. 77: 305-19). In order to improve the sensitivity and accuracy of the SET method, it was transferred from classical ELISA to ECL based technology (Haenel et al. (2005) Anal Biochem. 339.1: 182-84).

Assay [3] addresses T1, human IL-17C. Kind of assay: SET (ECL based), IgG, bivalent affinity, hGT454. The method, then:
as §1, §2

A further assay concerns the target T3, cynomolgus IL-17C (cynomolgus monkey, UniProt Q9P0M4 19-197 (human entry), limits assumed).
T3 chain: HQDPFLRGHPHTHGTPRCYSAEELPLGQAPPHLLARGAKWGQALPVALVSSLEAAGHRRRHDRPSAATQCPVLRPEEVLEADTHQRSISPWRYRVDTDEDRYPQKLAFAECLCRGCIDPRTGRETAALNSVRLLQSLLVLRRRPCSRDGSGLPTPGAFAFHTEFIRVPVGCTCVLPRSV
Kind of assay: cell-based or functional assay.

Assay [4] addresses T2, mouse IL-17C. Kind of assay: cell-based or functional assay.
For assay [5], the target named is T1, human IL-17C. Kind of assay: cell-based or functional assay. This is another data set of the same source.
The target in assay [6] is T1, human IL-17C. Kind of assay: MSD receptor binding inhibition: IgG with biotinylated IL-17C on coated IL17RE/Fc (head: hIL-17C-hIL17RE; text: mouse IL17RE/Fc). The method, then: Purified IL-17C specific IgGs were tested in mIL-17 RE interaction assay. Therefore MA6000 384 well plates (Meso Scale Discovery, MSD) were coated with 30 μl mouse IL17RE/Fc chimeric protein at 75 ng/ml in PBS at 4° C. overnight. The next day a serial antibody dilution (concentrations from 0.001 to 100 nM) were pre-incubated for 30 min at RT with an equal volume of biotinylated IL-17C. After blocking of plates for 1 h with 2.5% BSA in PBST, previously formed antibody-ligand complexes were added for 1 h to coated IL17RE/Fc and receptor binding was detected via Streptavidin-ECL using MSD Sector Imager.

Assay [7] has as its target T2, mouse IL-17C. Kind of assay: SET (ECL based), Fab, monovalent affinity, mGT454. The method, then:
as §1, §2

The target of assay [8] is T1, human IL-17C. Kind of assay: SET (ECL based), Fab, monovalent affinity, hGT454. The method, then: as §1, §2

B1: mab_1 (IgG1) (antibody, V domains shown)
VH: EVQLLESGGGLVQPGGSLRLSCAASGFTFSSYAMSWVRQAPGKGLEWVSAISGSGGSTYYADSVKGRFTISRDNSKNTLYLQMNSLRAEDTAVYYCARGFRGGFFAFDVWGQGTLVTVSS
VL: SYELTQPPSVSVSPGQTASITCSGDKLGDKYAYWYQQKPGQSPVLVIYQDSKRPSGIPERFSGSNSGNTATLTISGTQAEDEADYYCQAWTFPLLTWVFGGGTKLTVLG
notes: Human IgG1 from the Ylanthia library, VH3-23 / Vlambda3-1, made in HKB11 cells
Turning to B1, in the assay with human IL-17C [1], the “NHEK assay IC50 [pM] (expression of DEFB4A)” value came out at 415 pM. The EC50 (as a rule, the concentration giving half of the maximal effect) with mouse IL-17C [2] is 0.15 nM; in the assay with human IL-17C [3], 0.017 nM. Also, the “NF-kB reporter gene assay (IgG) IC50 [pM]” value in the assay with cynomolgus IL-17C is 24 pM; with mouse IL-17C [4] it was 46 pM; with human IL-17C [5], 29 pM. In addition, the IC50 (commonly the midpoint of a concentration-inhibition curve) with human IL-17C [6] is 0.04 nM.

B2: mab_1 Fab (Fab, V domains shown)
VH: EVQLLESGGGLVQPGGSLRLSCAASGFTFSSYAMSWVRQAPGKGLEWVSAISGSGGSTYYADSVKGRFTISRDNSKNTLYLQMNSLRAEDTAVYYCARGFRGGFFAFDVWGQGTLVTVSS
VL: SYELTQPPSVSVSPGQTASITCSGDKLGDKYAYWYQQKPGQSPVLVIYQDSKRPSGIPERFSGSNSGNTATLTISGTQAEDEADYYCQAWTFPLLTWVFGGGTKLTVLG
notes: His-tagged Fab made in E. coli; also called mab_1 (Fab format)
Regarding B2, the EC50 was determined as 72 nM in the assay with mouse IL-17C [7] and 4.8 nM with human IL-17C [8].

B3: mab_8 Fab (Fab, V domains shown)
VH: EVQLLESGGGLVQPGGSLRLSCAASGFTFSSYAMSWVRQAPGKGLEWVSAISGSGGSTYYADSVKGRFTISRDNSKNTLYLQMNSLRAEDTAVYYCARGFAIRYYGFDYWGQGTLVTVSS
VL: SYELTQPPSVSVSPGQTASITCSGDKLGDKYAYWYQQKPGQSPVLVIYQDSKRPSGIPERFSGSNSGNTATLTISGTQAEDEADYYCQVFTFPLVTTVFGGGTKLTVLG
notes: His-tagged Fab made in E. coli; also called mab_8 (Fab format)
As for B3, the EC50 with mouse IL-17C [7] is 490 nM; in the assay with human IL-17C [8] it was 2.7 nM.

B4: mab_8 (IgG1) (antibody, V domains shown)
VH: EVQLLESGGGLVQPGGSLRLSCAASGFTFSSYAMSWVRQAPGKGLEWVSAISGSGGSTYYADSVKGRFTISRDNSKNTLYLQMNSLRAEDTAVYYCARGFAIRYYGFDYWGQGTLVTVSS
VL: SYELTQPPSVSVSPGQTASITCSGDKLGDKYAYWYQQKPGQSPVLVIYQDSKRPSGIPERFSGSNSGNTATLTISGTQAEDEADYYCQVFTFPLVTTVFGGGTKLTVLG
notes: as for B1
For the molecule B4, the “NHEK assay IC50 [pM] (expression of DEFB4A)” value with human IL-17C [1] is 93 pM. Also, the EC50 in the assay with mouse IL-17C [2] worked out at 3.35 nM; with human IL-17C [3] it was 0.022 nM. Moreover, the results for the “NF-kB reporter gene assay (IgG) IC50 [pM]” value in the assay with cynomolgus IL-17C, with mouse IL-17C [4] and in the assay with human IL-17C [5] were 39 pM, 1770 pM and 42 pM, respectively. For the same molecule, in the assay with human IL-17C [6], the IC50 stood at 0.13 nM.
